The values below come from PMC5559640.

This data set relates to Pho7 DBD, Pho7(279-368) (Schizosaccharomyces pombe). The data set is described as follows: EMSA. The conditions noted are these: EMSA: 50 mM Tris-HCl pH 7.4, 10% glycerol, 340 ng poly(dI-dC), 0.6-1 pmol DNA in 10 ul, about 50 mM NaCl and 0.02% Triton X-100 from 2 ul protein diluent …; for binding signal: 27 ng Pho7 DBD, 1 pmol DNA.

“TTTCCTTCGGACATTCAAATCAGT (double strand) [tgp1 24-bp WT]” returned a binding signal of 81 % DNA bound.
The same measure, in the same setting: the same measure for “TTTCCTTCGGACATTCTTATCAGT (double strand) [tgp1 24-bp Mut3 (AA to TT)]”: 23 % DNA bound.
On the same count and under the same terms, the value for “TTTCCTTCGGACAAACAAATCAGT (double strand) [tgp1 24-bp Mut2 (TT to AA)]” was 45 % DNA bound.
Regarding “CCGGAAATAGTTTTATTCGGAAATTAAAAACAAGTTTATGGCG (double strand) [pho1 site 2 43-bp DNA]”, where the note is “8.3-66 ng Pho7 DBD”, the binding signal (fold affinity vs site 1 (N4)) turned out to be 2.
Take “CAACAGGGGAATAGTCGCTGCTTGAAACATCCGGAAATAG (double strand) [pho1 site 1 40-bp DNA]”: the binding signal (fold affinity vs site 2 (N5)) (8.3-66 ng Pho7 DBD) stood at 0.5.
